# T1: human Fc tagged human Lag3 extra cellular domain (human, UniProt P18627 29-450, biotinylated in the epitope binning, the SA CAP SPR and the FACS competition assay)
# T1 construct: In-house fusion; also called huLag3-Fc; biotinylated, huFc-tagged huLag3; not shown: human Fc tag
# T1 sequence: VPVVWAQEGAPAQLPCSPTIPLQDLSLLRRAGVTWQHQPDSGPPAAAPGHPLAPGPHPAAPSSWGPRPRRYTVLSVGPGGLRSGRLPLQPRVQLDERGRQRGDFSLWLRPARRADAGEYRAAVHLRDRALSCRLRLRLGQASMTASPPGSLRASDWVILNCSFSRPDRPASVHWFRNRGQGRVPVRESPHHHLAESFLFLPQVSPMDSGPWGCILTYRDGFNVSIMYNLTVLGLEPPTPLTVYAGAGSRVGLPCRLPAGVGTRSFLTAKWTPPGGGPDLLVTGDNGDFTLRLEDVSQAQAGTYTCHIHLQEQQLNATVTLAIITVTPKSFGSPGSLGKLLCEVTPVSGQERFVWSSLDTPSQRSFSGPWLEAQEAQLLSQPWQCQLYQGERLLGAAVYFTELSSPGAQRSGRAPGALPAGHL
# B1: MDX-25F7 (25F7) Fab fragment (Fab, V domains shown)
# VH: QVQLQQWGAGLLKPSETLSLTCAVYGGSFSDYYWNWIRQPPGKGLEWIGEINHNGNTNSNPSLKSRVTLSLDTSKNQFSLKLRSVTAADTAVYYCAFGYSDYEYNWFDPWGQGTLVTVSS
# VL: EIVLTQSPATLSLSPGERATLSCRASQSISSYLAWYQQKPGQAPRLLIYDASNRATGIPARFSGSGSGTDFTLTISSLEPEDFAVYYCQQRSNWPLTFGQGTNLEIK
# B2: MDX-26H10 (26H10) Fab fragment (Fab, V domains shown)
# VH: QVQLVESGGGVVQPGRSLRLSCAASGFTFSSYGMHWVRQAPGKGLEWVAVIWYDGSNKYYADSVKGRFTISRDNSKNTLYLQMNSLRAEDTAVYYCAREWAVASWDYGMDVWGQGTTVTVSS
# VL: not shown
# B3: aLAG3(0411) Fab fragment (Fab, V domains shown)
# VH: EVHLLESGGGLVQPGGSLRLSCAASGFIVDDYTMNWVRQAPGKGLEWVSVISWDGGATYYADSVKGRFTISRDDFKNTLYLQMNSLRAEDTAVYYCAKGLTDDTLYGSDYWGQGTLVTVSS
# VL: DIQMTQSPSSLSASVGDRVTITCRASQSIVSYLNWYQQKPGKAPKLLIYASSSLQSGVPSRFSGSGSGTDFTLTISSLQPEDFATYYCQQTYSTPLTFGGGTKVEIK
# notes: also called aLAG3 (411)
# B4: aLAG3(0417) Fab fragment (Fab, V domains shown)
# VH: EVQLVESGGGLVQPGGSLRLACAASGFTFSDYAMSWVRQAPGKGLEWVSGIDNSGYYTYYTDSVKGRFTISRDDVKNTLYLQMNSLRAEDTAVYLCTKTHSGLIVNDAFDIWGQGTMVTVSS
# VL: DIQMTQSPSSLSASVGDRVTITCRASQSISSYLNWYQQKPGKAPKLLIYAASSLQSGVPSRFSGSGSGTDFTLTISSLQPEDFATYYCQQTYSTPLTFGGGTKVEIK
# notes: also called aLAG3 (417)
# B5: aLAG3(0403) Fab fragment (Fab, V domains shown)
# VH: EVQLLESGGGLVQPGGSLRLSCAASGFTFDDYTMHWVRQAPGKGLEWVSLVSWDGGGTYYTNSVKGRFTISRDNSKNTLYLQMNSLRAEDTAVYFCAKAITDTSLYGYDYWGQGILVTVSS
# VL: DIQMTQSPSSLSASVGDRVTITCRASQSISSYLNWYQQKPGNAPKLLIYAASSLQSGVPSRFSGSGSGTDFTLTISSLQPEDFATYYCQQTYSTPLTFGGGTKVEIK
# B6: PD1-0069 (antibody, V domains shown)
# VH: QVQLQQSGPELVRPGVSVKISCKGSGYTFTDYAMHWVKQSHARTLEWIGVISTYSGDTNYNQKFKDKATMTVDKSSSTAYLELARMTSEDSAIYYCARLGITTGFAYWGQGTLVTVSA
# VL: DIVLTQSPASLAVSLGQRATISCRASKGVSTSSYSFMHWYQQKPRQPPKLLIKYASYLESGVPARFSGSGSGTDFTLNIHPVEEEDAATYYCHHSREFPWTFGGGTKLEIK
# notes: Mouse hybridoma antibody
# B7: PD1-0050 (antibody, V domains shown)
# VH: DVQLQESGPGLVKPSQSLSLTCTVTGYSITSDYAWNWIRQFPGNKLEWMGYITYTGRTSYNPSLKSRISITRDTSKNQFFLQLNSVTTEDTATYYCAREMDYYGSTLDYWGQGTTLTVSS
# VL: KIVLTQSPASLAVSLRQRATISCRASESVDRYGNSFIHWYQQKPGQPPKVLIYRASNLESGFPARFSGSGSRTDFTLTIDPVEADDAATYYCQQNNEDPYTFGSGTKLEIK
# B8: PD1-0103 (antibody, V domains shown)
# VH: EVILVESGGGLVKPGGSLKLSCAASGFSFSSYTMSWVRQTPEKRLDWVATISGGGRDIYYPDSVKGRFTISRDNAKNTLYLEMSSLMSEDTALYYCVLLTGRVYFALDSWGQGTSVTVSS
# VL: KIVLTQSPASLPVSLGQRATISCRASESVDTSDNSFIHWYQQRPGQSPKLLIYRSSTLESGVPARFSGSGSRTDFTLTIDPVEADDVATYYCQQNYDVPWTFGGGTKLEIK
# notes: Mouse hybridoma antibody; also called murine anti-PD1 antibody PD1-0103
# B9: PD1-0102 (antibody, V domains shown)
# VH: DVQLQESGPDLVKPSQSLSLTCTVTGYSITSGYSWHWIRQFPGNKLEWMGFIHSSGDTNYNPSLKSRISFTRDTSKNQFFLQLSSLTDEDTATYYCATYRNWYFDVWGAGTTVTVSS
# VL: DIVMTQSPSSLTVTAGEKVTMRCKSSQSLLNSGTQKNYLTWYQQKPGQPPKLLIYWASTRESGVPNRFTGSGSGTDFTLTISSVQAEDLSVYYCQSDYTFPLTFGGGTKLELK
# B10: PD1-0098 (antibody, V domains shown)
# VH: DVQLQESGPGLVKPSQSLSLTCTVTGYSITSDYAWNWIRQFPGDKLEWLGYITYSGFTNYNPSLKSRISISRDTSKNQFFLQLNSVATEDTATYYCARWHGSAPWYFDYWGRGTTLTVSS
# VL: DVLMTQTPLSLPVSLGDQASISCRSSQNIVHSDGNTYLEWYLQKPGQSPNLLIYKVSRRFSGVPDRFSGSGSGTDFTLKISRVEAEDLGVYYCFQGSHFPLTFGAGTKLELK
# notes: Mouse hybridoma antibody
# B11: PD1-0073 (antibody, V domains shown)
# VH: EVKLVESGGGLVKPGGSLKLSCAASGFTFSNYGMSWIRQTPEKGLEWVATISGGGRDTYYPDSVKGRFTISRDNVKNNLYLQMSSLRSEDTAFYYCASYYYGIDYWGQGTSVTVSS
# VL: DIVMTQPHKFMSTSVGDRVRITCKASQDVTTAVAWYQQKPGQSPKLLIYWASTRHTGVPDRFTGSGSGTEFTLTISSVQAEDLALYYCQQHYSIPWTFGGGTKLEIK
# Biological target: T1, human Fc tagged human Lag3 extra …
# Assay: SPR (Biacore T200), huLag3-Fc captured, antibody Fab fragment as analyte, 25 °C
# Protocol: Therefore two flow cells of a C1 biosensor chip were prepared in a Biacore T200 by immobilizing neutravidin, diluted to 25 μg/ml in acetate buffer pH 4.5, onto it using the ‘immobilization wizard’. […] Then, CaptureSelect™ Biotin Anti-IgG-Fc (Human) Conjugate was bound to the neutravidin, using a 20 μg/ml dilution in running buffer (HBS-EP+, GE Healthcare).
# The method itself consisted of four commands per cycle. […] Second command: sample injection for 120s followed by a 1200s long dissociation at a flow speed of 30 μl/min. Third and fourth command: regeneration by injecting Glycine-HCl pH 1.5 for 30 seconds.
row,koff [s⁻¹],Binder
1,0.000386,B1
2,0.000399,B2
3,3.87e-05,B3
4,9.48e-05,B4
5,5e-06,B5

# Biological target: T2, biotinylated PD1-ECD-AviHis (human, UniProt Q15116 25-170, biotinylated)
# T2 construct: also called huPD1; hu PD1; not shown: Avi-His tag
# Assay: ELISA on coated biotinylated PD1-ECD-AviHis
# Protocol: (§1) After washing (3×90 μl/well with PBST-buffer) 25 μl/well goat-anti-human H+L-POD (JIR, JIR109-036-088)/Sheep-anti-mouse-POD (GE Healthcare; NA9310) was added in 1:2000/1:1000 dilution and incubated at RT for 1 h on shaker. After washing (3×90 μl/well with PBST-buffer) 25 μl/well TMB substrate (Roche Catalogue No. 11835033001) was added and incubated until OD 2-3. Measurement took place at 370/492 nm.
# T2 sequence (Q15116 25-170): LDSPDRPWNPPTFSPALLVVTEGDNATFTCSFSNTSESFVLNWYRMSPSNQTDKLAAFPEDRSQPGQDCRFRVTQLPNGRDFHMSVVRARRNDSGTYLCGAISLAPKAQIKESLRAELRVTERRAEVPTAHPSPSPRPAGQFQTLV
row,EC50 [µg/mL],Binder
1,0.0457,B6
2,0.0179,B7
3,0.0337,B8
4,0.0342,B9
5,0.0508,B10
6,0.0151,B11

# Biological target: T3, biotinylated cynoPD1-ECD-Biotin (cynomolgus, UniProt B0LAJ3 25-170, biotinylated; the site and any Avi or His tag are not stated in the passages shown)
# T3 construct: also called cyPD1
# Assay: ELISA on coated cynoPD1-ECD-Biotin
# Protocol: as §1, with “JIR109-036-088)” for “JIR109-036-088)/Sheep-anti-mouse-POD (GE Healthcare; NA9310)”, “1:1000” for “1:2000/1:1000”, “(Roche,” for “(Roche Catalogue No.”
# T3 sequence (B0LAJ3 entry or part of it limits assumed): as the sequence (Q15116 25-170) above, with D2E, P10A, V19L, T35A, Q75R, T144A counted along it
row,EC50 [µg/mL],Binder
1,0.0227,B6
2,0.0098,B7
3,0.0369,B8
4,0.0527,B9
5,0.0546,B10
6,0.0083,B11

# Biological target: T2, biotinylated PD1-ECD-AviHis
# Assay: PD-L1 replacing ELISA on coated PD1-ECD-AviHis; competitor PD-L1 Fc chimera
# Protocol: as §1, with “109-036-088)” for “JIR109-036-088)/Sheep-anti-mouse-POD (GE Healthcare; NA9310)”, “1:1000” for “1:2000/1:1000”, “(Roche,” for “(Roche Catalogue No.”
row,IC50 [µg/mL],Binder
1,0.225,B6
2,0.128,B7
3,0.182,B8
4,> 35.5,B9
5,0.174,B10
6,0.124,B11

# Biological target: T2, biotinylated PD1-ECD-AviHis
# Assay: PD-L2 replacing ELISA on coated PD1-ECD-AviHis; competitor PD-L2 Fc chimera
# Protocol: After washing (3×90 μl/well with PBST-buffer) 25 μl/well goat-anti-human H+L-POD (JIR, 109-036-088) was added in 1:2000 dilution and incubated at RT for 1 h on shaker. After washing (3×90 μl/well with PBST-buffer) 25 μl/well TMB (tetramethylbenzidine) substrate (Roche, #11835033001) was added and incubated until OD 2-3. Measurement took place at 370/492 nm.
row,IC50 [µg/mL],Binder
1,0.089,B6
2,0.034,B7
3,0.051,B8
4,0.14,B9
5,0.045,B10
6,0.065,B11

# Reference: patent US20220387586A1 (Hoffmann-La Roche, published 2022)
